Experimental data reported in patent US20260069656A1, “Nutritive Polypeptides and Formulations Thereof, and Methods of Production and Use Thereof” (Axcella Health Inc., priority 2013, published 2026).

How the values were obtained:
[1] = SGF digest of the 168 nutritive polypeptide library, intact protein by LC-MS/MS spectral counts; format: in vitro ADME; conditions: proteins detected in the 168 nutritive polypeptide library
Procedure: Nutritive polypeptide intact half-life determination in a complex mixture. The in vitro intact half-life of multiple polypeptides in a complex mixture was determined using the simulated gastric in vitro digestion described above. Briefly, the 168 nutritive polypeptide library was generated as described herein by cloning, transforming, and expressing a gene library encoding 168 proteins as a single mixture. The recombinantly expressed proteins were purified from host cell proteins by IMAC purification as described herein.
The 168 Protein Library was treated with SGF as described above and the t=0 and t=10 min samples were analyzed for intact protein by LC-MS/MS. To begin, 10 μg of sample was loaded onto a 10% SDS-PAGE gel (Invitrogen) and run approximately 5 cm into the gel. The gel was excised into ten fractions from 100 kD to the dye front and the gel slices were processed by washing with 25 mM ammonium bicarbonate, followed by acetonitrile. Gel fractions were then reduced with 10 mM dithiothreitol at 60° C., followed by alkylation with 50 mM iodoacetamide at room temperature. Finally, the samples were digested with trypsin (Promega) at 37° C. for 4 h and the digestions were quenched with the addition of formic acid. The samples were then analyzed by nano LC/MS/MS using an EasynLC 1000 HPLC system interfaced to a ThermoFisher Q Exactive. Peptides were loaded on a trapping column and eluted over a 75 μm analytical column at 350 nL/min; both columns were packed with PepMap C18 3 μm resin (ThemoFisher). A 1 hour gradient was employed. The mass spectrometer was operated in data-dependent mode, with MS and MS/MS performed in the Orbitrap at 70,000 FWHM resolution and 17,500 FWHM resolution, respectively. The fifteen most abundant ions were selected for MS/MS. Data were searched against an appropriate database using Mascot to identify peptides. Mascot DAT files were parsed into the Scaffold software for validation, filtering and to create a nonredundant list per sample. Data were filtered at 1% protein and peptide false discovery rate (FDR) and requiring at least two unique peptides per protein. A full list of detected proteins and their spectral counts (SpC) was generated and reported as a function of each collected gel fraction. SpC are a count of the number of spectra identified for a given protein and are used as a measure of relative protein abundance (Liu, H. et al., Analytical Chemistry 2004, 76:4193-4201). To calculate the percentage of intact protein remaining at the 10 min time point of the SGF digest the number of SpC representative of intact peptide in the t=10 min sample were divided by the number of SpC representative of intact peptide in the t=0 min sample. The number of SpC representative of intact peptide was defined as the sum of the SpC in the fraction with the highest number of SpC assigned to that protein in the t=0 min sample and the two flanking fractions.

[2] = Intact half-life during simulated gastric fluid (SGF) digestion; conditions: for SGF Half-life (t½): SGF pH 1.5, pepsin:polypeptide 1:20 w/w, 37° C., produced in E. coli unless otherwise noted; for Half-life: purified proteins, chip electrophoresis, SGF
[3] = system: kinase activity of SEQID-00338 (AMP + ATP→2ADP); test: Kinase activity of SEQID-00338 and mutants, ADP-Glo Max Assay; format: biochemical; conditions: 7 μg/mL, 30 minute reaction at 30° C.; N=2
Procedure: Determination of the kinase activity of SEQID-00338. The ADP-Glo™ Max Assay was obtained from Promega (Catalog number V7001, Madison, WI). Adenosine Monophosphate was obtained from Sigma-Aldrich (Catalog number A1752, St. Louis, MO). 5× Kinase Buffer was prepared w/1.211 g Tris Base (Catalog number BP152-2, Fisher Bioreagents, Pittsburgh, PA), 692 μL 12% hydrochloric acid solution (Catalog number BDH3026-500MLP, VWR, Radnor, PA), 10.0 mL 500 mM magnesium chloride (Catalog number BP214-500, Fisher Bioreagents, Pittsburgh, PA) and the volume brought to 50 mL with MilliQ water and filtered through 0.22 μm PES filter (Catalog number SCGP00525, Millipore, Billerica, MA) into a sterile 50 mL tube.
Twelve his-tag purified mutant proteins and the wild-type protein at 35 μg/mL in Tris buffer were serially diluted to 7.0 and 1.4 μg/mL. Prepared kinase reaction mix at 0.5 mM AMP/0.5 mM ATP to test for activity and at 0 mM AMP/0 mM ATP to assay background activity by diluting 5× Kinase Buffer with appropriate volumes of 10 mM AMP and 10 mM ATP in MilliQ water. Duplicate reactions were prepared by mixing 9 μL of the reaction mixture with 6 μL of diluted SEQID-00338, mixing by pipetting up and down and dispensing 5 μL into a 384-well white OptiPlate (PerkinElmer, Waltham, MA). An ADP standard curve was prepared by serially diluting 4 mM ADP in MilliQ water and adding kinase buffer to 1× for a standard at 0.0005, 0.001, 0.005, 0.01, 0.05, 0.1, 1.5, 1, 2, 3, and 4 mM ADP. The plate was covered with a foil plate seal and incubated at 30° C. for 30 min. Following the kinase reaction, 5 μL of ADP-Glo™ Reagent was added to each well. The plate was sealed with a foil plate seal and placed on a horizontal plate shaker at 450 rpm for 2 minutes at room temperature. The plate was removed from the plate shaker and incubated at room temperature for 40 minutes. The plate was then centrifuged for 15 seconds at 1109× rcf and 10 μL of ADP-Glo™ Max Detection Reagent was added. The plate was sealed with a foil plate seal and shaken on a horizontal plate shaker at 450 rpm at room temperature for 2 minutes. The plate was then removed from the plate shaker and incubated at room temperature for 60 minutes. The plate was centrifuged for 15 seconds at 1109× rcf and the luminescence read on an EnspireAlpha plate reader (PerkinElmer, Waltham, MA).
The ADP standard curve was used to determine the concentration of ADP in sample wells in the presence or absence of substrate. Concentrations were determined by performing a non-linear 4 parameter logistic on the X=log(X) transformed ADP standard luminescence values. […] Where the background concentration of ADP in the absence of substrate was calculable the average of those values were subtracted from the calculated ADP concentration in the substrate incubated wells. Activity knock out was calculated by percentage activity relative to purified wild-type protein at the same concentration.

B1: SEQID-00647: protein of the 168 nutritive polypeptide library (protein)
chain: MALSKIEEARQLNDDDLSEQILEIKKQLANLRLLKATGRLEKPHEIRHTRHRLSQLLTVERERQLPNQSPA
modifications: Arthrospira platensis C1
notes: protein of the 168 nutritive polypeptide library
% Remaining at 10 min [1]: 12%
SGF Half-life (t½) [2]: 12 s
Half-life [2]: 12 s

B2: R42L: single amino acid mutant of SEQID-00338 at substrate binding position 42 (protein, listed as Saccharomyces cerevisiae)
chain: MSSSESIRMVLIGPPGAGKGTQAPNLQERFHAAHLATGDMLLSQIAKGTQLGLEAKKIMDQGGLVSDDIMVNMIKDELTNNPACKNGFILDGFPRTIPQAEKLDQMLKEQGTPLEKAIELKVDDELLVARITGRLIHPASGRSYHKIFNPPKEDMKDDVTGEALVQRSDDNADALKKRLAAYHAQTEPIVDFYKKTGIWAGVDASQPPATVWADILNKLGKD
modifications: strain ATCC 204508 / S288c
AVG proportion activity, percentage AMP + ATP→2ADP converted relative to wild-type [3]: 1.7%

B3: R42Q: single amino acid mutant of SEQID-00338 at substrate binding position 42 (protein, listed as Saccharomyces cerevisiae)
chain: MSSSESIRMVLIGPPGAGKGTQAPNLQERFHAAHLATGDMLQSQIAKGTQLGLEAKKIMDQGGLVSDDIMVNMIKDELTNNPACKNGFILDGFPRTIPQAEKLDQMLKEQGTPLEKAIELKVDDELLVARITGRLIHPASGRSYHKIFNPPKEDMKDDVTGEALVQRSDDNADALKKRLAAYHAQTEPIVDFYKKTGIWAGVDASQPPATVWADILNKLGKD
modifications: strain ATCC 204508 / S288c
AVG proportion activity, percentage AMP + ATP→2ADP converted relative to wild-type [3]: 1.2%

B4: R42T: single amino acid mutant of SEQID-00338 at substrate binding position 42 (protein, listed as Saccharomyces cerevisiae)
chain: MSSSESIRMVLIGPPGAGKGTQAPNLQERFHAAHLATGDMLTSQIAKGTQLGLEAKKIMDQGGLVSDDIMVNMIKDELTNNPACKNGFILDGFPRTIPQAEKLDQMLKEQGTPLEKAIELKVDDELLVARITGRLIHPASGRSYHKIFNPPKEDMKDDVTGEALVQRSDDNADALKKRLAAYHAQTEPIVDFYKKTGIWAGVDASQPPATVWADILNKLGKD
modifications: strain ATCC 204508 / S288c
AVG proportion activity, percentage AMP + ATP→2ADP converted relative to wild-type [3]: 1.9%

B5: D91I: single amino acid mutant of SEQID-00338 at magnesium ion binding site position 91 (protein, listed as Saccharomyces cerevisiae)
chain: MSSSESIRMVLIGPPGAGKGTQAPNLQERFHAAHLATGDMLRSQIAKGTQLGLEAKKIMDQGGLVSDDIMVNMIKDELTNNPACKNGFILIGFPRTIPQAEKLDQMLKEQGTPLEKAIELKVDDELLVARITGRLIHPASGRSYHKIFNPPKEDMKDDVTGEALVQRSDDNADALKKRLAAYHAQTEPIVDFYKKTGIWAGVDASQPPATVWADILNKLGKD
modifications: strain ATCC 204508 / S288c
AVG proportion activity, percentage AMP + ATP→2ADP converted relative to wild-type [3]: 0.4%

B6: D91F: single amino acid mutant of SEQID-00338 at magnesium ion binding site position 91 (protein, listed as Saccharomyces cerevisiae)
chain: MSSSESIRMVLIGPPGAGKGTQAPNLQERFHAAHLATGDMLRSQIAKGTQLGLEAKKIMDQGGLVSDDIMVNMIKDELTNNPACKNGFILFGFPRTIPQAEKLDQMLKEQGTPLEKAIELKVDDELLVARITGRLIHPASGRSYHKIFNPPKEDMKDDVTGEALVQRSDDNADALKKRLAAYHAQTEPIVDFYKKTGIWAGVDASQPPATVWADILNKLGKD
modifications: strain ATCC 204508 / S288c
AVG proportion activity, percentage AMP + ATP→2ADP converted relative to wild-type [3]: 0.9%

B7: SEQID-00610: protein of the 168 nutritive polypeptide library (protein, listed as Saccharomyces cerevisiae)
chain: MVLEATVLVIDNSEYSRNGDFPRTRFEAQIDSVEFIFQAKRNSNPENTVGLISGAGANPRVLSTFTAEFGKILAGLHDTQIEGKLHMATALQIAQLTLKHRQNKVQHQRIVAFVCSPISDSRDELIRLAKTLKKNNVAVDIINFGEIEQNTELLDEFIAAVNNPQEETSHLLTVTPGPRLLYENIASSPIILEEGSSGMGAFGGSGGDSDANGTFMDFGVDPSMDPELAMALRLSMEEEQQRQERLRQQQQQQDQPEQSEQPEQHQDK
modifications: strain ATCC 204508 / S288c
notes: as for B1
% Remaining at 10 min [1]: 3.3%
SGF Half-life (t½) [2]: 24 s
Half-life [2]: 24 s
